From patent US20170173114A1, “METHODS AND COMPOSITIONS FOR INDUCTION OF UCP1 EXPRESSION” (Joslin Diabetes Center, Inc., priority 2014, published 2017)
“Also recorded” adds a separate entry of the source.

How the values were obtained:
UCP1 [1] = assay: UCP1 mRNA expression (Q-RT-PCR) in WT-1 brown preadipocytes; type: cell-based, murine
Protocol: Total RNA was isolated with QIAzol lysis reagent (Qiagen, Valencia, Calif.) and purified by RNeasy Mini columns (Qiagen) following the manufacture's instructions. cDNA was prepared from total RNA using the Advantage RT-PCR kit (BD Biosciences, Palo Alto, Calif.) according to manufacturer's instructions. Diluted cDNA was used in a PCR reaction with SYBR Green Master Mix (Applied Biosystems, Foster City, Calif.) and primers specifically designed for detection of the gene of interest. PCR reactions were run in duplicate for each sample and quantitated in the ABI Sequence Detection System (Applied Biosystems). Data were expressed as arbitrary units after normalization to levels of expression of internal controls for each sample. Sequences of primers for specific genes are each obtained from the published literature or designed using publically available gene sequence databases. Unless otherwise indicated, gene expression data described in the examples below was obtained using QPCR.
The effect of FGF6 on differentiation of WT-1 murine brown preadipocytes was also examined. WT-1 cells can be induced to undergo brown adipocyte differentiation, characterized by lipid accumulation and expression of adipogenic and brown fat markers, as described above (Klein et al. (1999) J Biol Chem 274:34795; Tseng et al. (2005) Nat Cell Biol 7:601). WT-1 cells were treated with FGF6 in growth media (DMEM+10% FBS), a vehicle control (“control” or “C” referred to in FIGS. 3A-D), or induction media (“induction” or “I” referred to in FIGS. 3A-D) as described above for seven days. Following the treatment, cells were examined for the color of the culture media in combination with oil Red O staining, expression of adipogenic markers, expression of brown fat markers, immunofluorescent staining of cells with UCP1 and DPAI, and Western blot analysis to determine the presence of UCP1 and β-tubulin. The results are described in FIGS. 3A to 3D.
UCP1 mRNA expression in brown adipocyte cells was determined at FGF6 concentrations ranging from 0 to 300 ng/ml in the absence of induction cocktail.
In order to determine the length of time necessary to induce UCP1 expression upon exposure to of cells to FGF6, an experiment was performed whereby FGF6 was administered to brown preadipocytes at a concentration of 200 ng/ml and UCP1 expression was determined. FGF21 and a control were also used in the time course experiment. FGF21, a member of the endocrine FGF ligands that has been implicated in the browning of white fat (Fisher F. M. et al., Genes Dev. 26:271-281, 2012). […] FGF6 could acutely induce a significant increase of UCP1 expression as early as 4 hours after a 200 ng/ml dose, as described in FIG. 4B. At 24 hours, the fold-induction of UCP1 mRNA by FGF6 reached 700-fold higher than the untreated cells, as described in FIG. 4B.
To assess FGF6's role in the regulation of mitochondrial activity, FGF6 was stably expressed in WT-1 brown preadipocytes and 3T3-F442A white preadipocytes. Stable cells were generated by viral infection followed by drug selection.
FGF2, FGF6 and FGF9 were used at a dosage of 50 ng/mL, 100 ng/mL, 200 ng/mL or 300 ng/mL. FGF21 was used at the dosage of 50 ng/ml and 500 ng/mL. The concentration of BMP7 was 3.3 nM. RNA was isolated and UCP1 and PPARγ expression levels were evaluated by quantitative reverse transcription polymerase chain reaction (Q-RT-PCR) analysis after 24 hours (i.e., 1 day) (FIG. 14A), 2 days (FIG. 14B), 5 days (FIG. 14C) and 7 days (FIG. 14D) of treatment. All experiments were performed triplicate and the data are presented as mean+/−SEM.
FGF2, FGF6 and FGF9 were used at a dosage of 200 ng/mL. FGF21 was used at a dosage of 500 ng/mL. The concentration of BMP7 was 3.3 nM. mRNA was isolated and UCP1 and PPARγ expression levels were evaluated by quantitative reverse transcription polymerase chain reaction (Q-RT-PCR) analysis after 24 hours (i.e., 1 day), 2 days, 5 days and 7 days of treatment (FIG. 15). […]

UCP1 [2] = assay: Marker mRNA expression and culture media acidification in mature brown adipocytes; type: cell-based, murine; conditions: seven days
Protocol: The effect of FGF6 on murine mature brown adipocytes was also examined. Mature brown adipocytes were treated with FGF6 in growth media (DMEM+10% FBS), a vehicle control (buffer) (“buffer” referred to in FIG. 22), or BMP7 for seven days. Following the treatment, cells were examined for the color of the culture media in combination with oil Red O staining, expression of adipogenic markers, and expression of brown fat markers.
mRNA expression of UCP1, PPARγ, PTGS2, NDST3 and SIRT1 was measured in the mature adipocytes exposed to either the control, BMP7, or FGF6.

UCP1 [3] = assay: UCP1 mRNA expression in SVF cells from interscapular brown adipose tissue (BAT-SVF); type: cell-based, C57BL/6 mice; conditions: growth media, 3 days; vs control
Protocol: Eight 6-week old C57BL/6 male mice were sacrificed. Interscapular BAT and axillary subcutaneous WAT were removed, minced and digested with 1 mg/ml collagenase for 45 minutes at 37° C. in DMEM/F12 media, containing 1% BSA and antibiotics. Digested tissues were filtered through sterile 150 μm nylon mesh and centrifuged at 250×g for 5 minutes. The floating fractions consisting of adipocytes were discarded and the pellets representing the SVF were then resuspended in erythrocyte lysis buffer (154 mM NH4Cl, 10 mM KHCO3, 0.1 mM EDTA) for 10 minutes to remove red blood cells. The cells were further centrifuged at 500×g for 5 minutes, plated at 8×10^5 cells/well of a 24-well plate and grown at 37° C. in DMEM/F12 supplemented with 10% FBS at 37° C.
To determine if FGF6 treatment of primary adipose progenitors could also increase UCP1 expression as observed in Example 1, stromo-vascular fraction (SVF) cells, which comprise adipocyte progenitors, were isolated from interscapular brown adipose tissue (BAT-SVF) and subcutaneous white adipose tissue (SQ-SVF). SVF cells were subsequently treated with FGF6 or FGF21 in growth media (DMEM+10% FBS) for 3 days, followed by determination of UCP1 expression. As described in FIGS. 9A and 9B, FGF21 treatment had little effect on UCP1 mRNA expression in either type of SVF cells, as compared to the control. […]

[4] = 0 to 300 ng/ml, absence of induction cocktail, day 7

B1: FGF6: fibroblast growth factor 6; recombinant human FGF from R&D Systems, or mouse FGF6 cDNA overexpressed by lentiviral vector (protein)
chain: KRQRRLYCNVGIGFHLQVLPDGRISGTHEENPYSLLEISTVERGVVSLFGVRSALFVAMNSKGRLYATPSFQEECKFRETLLPNNYNAYESDLYQGTYIALSKYGRVKRGSKVSPIMTVTHFLPRI
In the case of B1, the “FGF6 concentration at which UCP1 gene expression plateaued” value (UCP1 [1]; [4]) is reported as “about 200 ng/ml”, the “UCP1 gene expression, dose response” value (UCP1 [1]; [4]) is reported as “dose-dependent manner” and the “earliest time of significant increase of UCP1 expression” value (UCP1 [1]; 200 ng/ml) is reported as 4 h. The “fold-induction of UCP1 mRNA over untreated cells” value (UCP1 [1]; 200 ng/ml, 24 hours) was 700 fold, the “UCP1 levels with prolonged exposure” value (UCP1 [1]; 200 ng/ml, time course) was “continued to rise” and the UCP1 expression level (UCP1 [1]; 50-300 ng/mL with insulin and T3, 1, 2, 5 and 7 days, dose-responsive) was “very high levels of UCP1”. The “UCP1 expression level, time course” value (UCP1 [1]; FGF2, FGF6, FGF9 200 ng/mL, FGF21 500 ng/mL, with insulin and T3, 1, 2, 5, 7 days) was “very high levels of UCP1”, the “UCP1 mRNA expression” value (UCP1 [1]; WT-1, 24 hours, vs vehicle) was “significantly induced” and the “UCP1 mRNA expression” value (UCP1 [1]; WT-1, growth media, seven days, vs control or induction media) was “significantly increased; also recorded: extremely high levels”. The “UCP1 expression over basal level” value (UCP1 [1]; constitutive overexpression of FGF6 in WT-1) was “greatly increased; also recorded: marked increases”, the “acidification of cell culture media, mature brown adipocytes” value (UCP1 [2]) was “no acidification of cell culture media” and the “UCP1 mRNA expression in mature adipocytes” value (UCP1 [2]; vs buffer or BMP7) was “does not induce”. The “increase of UCP1 mRNA expression in BAT-SVF” value (UCP1 [3]) was 4 fold.
